Laboratory results published in publication PMC10454306, “Genome-Wide Identification of GmSPS Gene Family in Soybean and Expression Analysis in Response to Cold Stress”.

T1: GmICE1 conserved domain (GmICE1-His) (Glycine max, UniProt B8XJY5 275-465)
T1 sequence: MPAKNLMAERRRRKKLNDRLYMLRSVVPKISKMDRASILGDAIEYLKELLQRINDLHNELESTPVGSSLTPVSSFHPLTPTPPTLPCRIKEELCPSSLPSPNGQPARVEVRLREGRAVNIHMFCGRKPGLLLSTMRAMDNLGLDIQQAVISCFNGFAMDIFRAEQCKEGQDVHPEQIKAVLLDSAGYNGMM

B1: GmSPS18 promoter 50 bp probe (-68 to -117) (dsDNA)
DNA 1: GTCTACACGTGTGTATCTCCATGCCCCACCATTCCTGCCACGTGGCAGTG
DNA 2: CACTGCCACGTGGCAGGAATGGTGGGGCATGGAGATACACACGTGTAGAC
B2: GmSPS8 promoter 50 bp probe (-66 to -115) (dsDNA)
DNA 1: AGTCTACACGTGTGTATCTCCATGGCCCACCATTCCTTGCCACGTGTCAA
DNA 2: TTGACACGTGGCAAGGAATGGTGGGCCATGGAGATACACACGTGTAGACT

Biological target: T1, GmICE1 conserved domain (GmICE1-His)
Experiment: EMSA; weakened dose-dependently by unlabeled same-sequence competitor; EMSA kit (Thermo Fisher Scientific); buffer, salt, pH and temperature not stated
Conditions: protein: recombinant; tags: His (PET-32a vector); chain copies: 2; label: biotin (forward strand); blunt

Row | Binder | binding result
1 | B1 | binds
2 | B2 | binds
